Data as given in US20250197451A1 (CAPITAL MEDICAL UNIVERSITY SCHOOL OF STOMATOLOGY, published 2025).

B1: peptide 84 (peptide)
peptide: DQQPQEEEEKDEEGE
B2: peptide 83 (peptide)
peptide: EEEACDQQPQEEEEK
B3: peptide 154 (peptide)
peptide: RRSECEEAPRRRSDE
B4: peptide 160 (peptide)
peptide: DDVHLRKKRKYEKPQ
B5: peptide 135 (peptide)
peptide: EDTVEEEEGKFNLML
B6: peptide 65 (peptide)
peptide: DSLVFGGNILHSFNV
B7: peptide 64 (peptide)
peptide: VYTPVDSLVFGGNIL
B8: peptide 150 (peptide)
peptide: SLLKEQKMNRDNKEG
B9: peptide 149 (peptide)
peptide: SNLPGSLLKEQKMNR
B10: peptide 90 (peptide)
peptide: PTSTPSEDQEALGKK
B11: peptide 92 (peptide)
peptide: ALGKKPKAPALRFLK
B12: peptide 96 (peptide)
peptide: ESEESVKSTTLAVDY
B13: peptide 91 (peptide)
peptide: SEDQEALGKKPKAPA
B14: peptide 8 (peptide)
peptide: EFESATQRPIDRQRY
B15: peptide 99 (peptide)
peptide: PKTPTGSPATEVSAK
B16: peptide 89 (peptide)
peptide: DGSTSPTSTPSEDQE

What follows are binders tested against T1, biotin-labelled EZH2 protein (UniProt Q15910 1-746, limits assumed, biotin label (EZ-link NHS-PEO4-Biotinylation kit)) (assay: KDM2B peptide array probed with biotin-EZH2 1 ug/ml, SA-HRP/ECL;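 on Intensity (%): Background-corrected optical density of each spot on the membrane, given as percent of the brightest spot (100%), color developed for 5 minutes; 100% is the highest background-corrected spot optical density on the membrane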).
T1 construct: Probe in solution (1 ug/ml) on the KDM2B peptide microarray; also called NHS-PEO4-Biotinylation-labelled EZH2 protein; recombinant protein
T1 sequence (Q15910 whole entry): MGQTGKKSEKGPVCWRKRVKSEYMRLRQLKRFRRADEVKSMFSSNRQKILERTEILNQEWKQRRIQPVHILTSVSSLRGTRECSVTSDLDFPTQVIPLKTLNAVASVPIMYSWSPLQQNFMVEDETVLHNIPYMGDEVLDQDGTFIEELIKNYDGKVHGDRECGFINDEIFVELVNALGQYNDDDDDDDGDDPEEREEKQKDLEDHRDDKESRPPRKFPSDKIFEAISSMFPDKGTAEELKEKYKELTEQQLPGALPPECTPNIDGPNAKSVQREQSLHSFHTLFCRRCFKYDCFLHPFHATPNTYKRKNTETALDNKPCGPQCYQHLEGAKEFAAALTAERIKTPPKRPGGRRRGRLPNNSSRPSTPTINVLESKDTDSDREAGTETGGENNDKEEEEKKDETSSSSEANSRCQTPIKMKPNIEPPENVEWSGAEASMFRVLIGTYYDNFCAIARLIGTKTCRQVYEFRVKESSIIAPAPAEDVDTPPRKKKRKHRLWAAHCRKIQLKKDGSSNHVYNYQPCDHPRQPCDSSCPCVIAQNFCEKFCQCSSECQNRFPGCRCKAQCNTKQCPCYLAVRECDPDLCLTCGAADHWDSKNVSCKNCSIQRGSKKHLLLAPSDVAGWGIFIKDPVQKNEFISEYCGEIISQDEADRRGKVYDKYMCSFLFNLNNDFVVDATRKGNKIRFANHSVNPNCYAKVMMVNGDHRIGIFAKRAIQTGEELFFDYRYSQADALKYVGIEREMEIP

| Intensity (%) | Binder |
| --- | --- |
| 0 | B1 |
| 0 | B2 |

The binders below were run against T1, biotin-labelled EZH2 protein (assay: KDM2B peptide array probed with biotin-EZH2 1 ug/ml, SA-HRP/ECL; Remark: spike).
Procedure: (§1) After blocking, the polypeptide microarray was incubated with biotin-labeled target protein for hybridization, visualized with the chemical chromogenic substrate and imaged using a Chempchemi digital imager. The image of colored polypeptide microarray was analyzed for the optical density of the colored points. Particularly, the optical density of each colored point was calculated using the optical density of the respective surrounding background as a reference for background correction. The highest optical density value of the colored point on membrane was set to 100%, and the optical density value of the remaining colored points was converted into percentages relative to the highest value. The points with an optical density percentage of more than 30% on the polypeptide membrane and also with an optical density percentage of less than 30% on the negative membrane were defined as positive colored points.
(§2) For the hybridization experiment, a solution of NHS-PEO4-Biotinylation-labelled EZH2 protein (1 μg/ml) was used for the hybridization of the polypeptide microarray. Streptavidin-HRP was used to amplify the reaction signal according to the experimental procedure and conditions described above, and the time of color development was 5 minutes.

| Intensity (%) | Binder |
| --- | --- |
| 0 | B3 |
| 0 | B4 |
| 0 | B5 |
| 0 | B6 |
| 0 | B7 |
| 0 | B8 |
| 0 | B9 |

Biological target: T1, biotin-labelled EZH2 protein
Experiment: KDM2B peptide array probed with biotin-EZH2 1 ug/ml, SA-HRP/ECL
Remark: another data set of the same source
Procedure: as §1, §2

| binding result | Binder |
| --- | --- |
| no binding | B1 |
| no binding | B2 |

These binders were tested against T1, biotin-labelled EZH2 protein (assay: KDM2B peptide array probed with biotin-EZH2 1 ug/ml, SA-HRP/ECL; Remark: noise).
Procedure: as §1, §2

| Intensity (%) | Binder |
| --- | --- |
| 0.19 | B10 |
| 0 | B11 |
| 0 | B12 |
| 0 | B13 |
| 0 | B14 |
| 0 | B15 |
| 0 | B16 |
